The values that follow come from US20140065645.

In the series the target is T1, FITC-labeled polypeptide linker, coupled to a bead.
T1 chain: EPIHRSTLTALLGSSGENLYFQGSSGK

B1: Tobacco etch virus (TEV) protease (protein)
chain: GESLFKGPRDYNPISSTICHLTNESDGHTTSLYGIGFGPFIITNKHLFRRNNGTLLVQSLHGVFKVKNTTTLQQHLIDGRDMIIIRMPKDFPPFPQKLKFREPQREERICLVTTNFQTKSMSSMVSDTSCTFPSSDGIFWKHWIQTKDGQCGSPLVSTRDGFIVGIHSASNFTNTNNYFTSVPKNFMELLTNQEAQQWVSGWRLNADSVLWGGHKVFMSKPEEPFQPVKEATQLMNELVYSQ
For B1, the Intensity of Signal (FITC fluorescence of the linker-bead complex after 1 hour with TEV protease, 1:1 by mass) came out at 10.3; the Intensity of Signal (FITC fluorescence of the linker-bead complex after 1 hour with TEV protease, 1:2 by mass) was 9; the Ratio of Signal/Background Signal (1:1 TEV protease) is 1.24; the Ratio of Signal/Background Signal (1:2 TEV protease) worked out at 1.08. The “cleavage of the polypeptide linker” value was “Most polypeptide linkers were cleaved when the mass of the added enzyme was twice the mass of the polypeptide linker”.
